What all share (assay): EMSA
Holding throughout (conditions): 8-oxo-7,8-dihydroguanosine at positions 3,7,11,15,19,23
For orientation: A gel shift assay detects complexes by their altered migration in electrophoresis.

In series [1] the target is T1, PNPase NYM S76N;F77Y;F78M (Escherichia coli K12) (UniProt P05055).
T1 sequence: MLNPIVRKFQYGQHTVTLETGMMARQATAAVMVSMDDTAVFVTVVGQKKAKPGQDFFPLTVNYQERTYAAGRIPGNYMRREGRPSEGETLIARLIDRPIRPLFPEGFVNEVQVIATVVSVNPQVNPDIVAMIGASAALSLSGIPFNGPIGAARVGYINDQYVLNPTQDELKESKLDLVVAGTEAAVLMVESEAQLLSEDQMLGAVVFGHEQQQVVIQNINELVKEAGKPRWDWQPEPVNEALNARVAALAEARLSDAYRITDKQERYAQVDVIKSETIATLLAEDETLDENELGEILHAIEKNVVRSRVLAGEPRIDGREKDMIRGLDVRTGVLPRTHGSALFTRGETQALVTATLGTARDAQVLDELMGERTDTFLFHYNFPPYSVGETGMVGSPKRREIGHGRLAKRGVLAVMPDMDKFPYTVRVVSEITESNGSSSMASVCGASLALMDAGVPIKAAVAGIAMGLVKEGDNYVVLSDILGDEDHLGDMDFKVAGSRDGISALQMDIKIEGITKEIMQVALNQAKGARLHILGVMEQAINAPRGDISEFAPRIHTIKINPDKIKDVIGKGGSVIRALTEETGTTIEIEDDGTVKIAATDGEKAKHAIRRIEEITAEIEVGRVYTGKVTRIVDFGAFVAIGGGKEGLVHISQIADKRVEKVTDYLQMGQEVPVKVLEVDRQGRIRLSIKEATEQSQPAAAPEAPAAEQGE

For series [2], the target named is T2, PNPase NFH S76N;F78H (Escherichia coli K12) (UniProt P05055).
T2 sequence: T1 sequence with Y77F, M78H

In series [3] the target is T3, PNPase GFT S76G;F78T (Escherichia coli K12) (UniProt P05055).
T3 sequence: T1 sequence with N76G, Y77F, M78T

The target of series [4] is T4, PNPase wild type (SFF) (Escherichia coli K12) (UniProt P05055).
T4 sequence: T1 sequence with N76S, Y77F, M78F

Positions count from the first letter of the chain named.

As for “NNGNNNGNNNGNNNGNNNGNNNGN [8-oxoG RNA 24-mer [NN(8-oxoG)N]6]”, the binding signal (Kd ratio unmodified/8-oxoG (selectivity)) in series [1] was 2.8; in series [2] it was 2.5; in series [3], 2.3; in series [4], 1.8.
